Stoichiometry N data for 1 substance are collected here from paper doi:10.1101/2022.02.17.480908.

The target in the experiment is urea pre-unfolded MLucV (stable small aggregates) (firefly). As to the kind of experiment: SEC-RALS.

A word on the stoichiometry N: it is a count of units in the complex or per binding partner. Turning to “urea pre-unfolded MLucV (stable small aggregates)”, the stoichiometry N was 12.
